Source: patent publication US20100151492A1

Columns and labels:
human PD-1 (human) = human PD-1 (human) (UniProt Q15116); assay: cell-based or functional assay
human PD-L1 (human) = human PD-L1 (human) (UniProt Q9NZQ7); assay: cell-based or functional assay
UniProt Q9NZQ7, sequence (Q9NZQ7 19-290 limits assumed): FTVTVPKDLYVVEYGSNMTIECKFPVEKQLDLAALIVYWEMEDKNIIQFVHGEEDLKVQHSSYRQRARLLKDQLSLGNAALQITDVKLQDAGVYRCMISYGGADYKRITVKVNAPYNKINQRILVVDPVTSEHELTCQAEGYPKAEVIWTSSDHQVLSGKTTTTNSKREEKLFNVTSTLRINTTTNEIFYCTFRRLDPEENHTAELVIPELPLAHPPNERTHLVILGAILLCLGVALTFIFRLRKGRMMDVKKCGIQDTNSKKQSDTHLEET

UniProt Q15116, sequence (Q15116 other isoform, or with tags, fused parts or gaps limits assumed): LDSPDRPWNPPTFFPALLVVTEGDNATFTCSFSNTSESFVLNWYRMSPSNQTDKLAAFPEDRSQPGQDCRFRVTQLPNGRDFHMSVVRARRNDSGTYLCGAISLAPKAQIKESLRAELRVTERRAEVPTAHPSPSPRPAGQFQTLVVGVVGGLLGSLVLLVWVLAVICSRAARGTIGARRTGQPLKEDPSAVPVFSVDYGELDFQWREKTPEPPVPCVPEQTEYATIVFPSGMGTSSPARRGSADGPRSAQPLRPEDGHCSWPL

Monoclonal antibody to human PD-1 (EH12, mouse IgG1)
expansion of HCV-specific T cells (frequency of CFSE low tetramer labeled CD8+ T cells after 6 days) (human PD-1 (human)): 4 fold

Monoclonal antibody to human PD-L1 (29E.2A3, mouse IgG2b)
expansion of HCV-specific T cells (frequency of CFSE low tetramer labeled CD8+ T cells after 6 days) (human PD-L1 (human)): 4 fold
fold increase in tetramer+ cells (6-day CFSE proliferation of B*4201 TL9-specific CD8+ T cells) (human PD-L1 (human)): 10.3 fold
fold increase in the frequency of EBV or CMV-specific CD8 T cells (6-day CFSE proliferation) (human PD-L1 (human)): < 3.5 fold
percentage of B*4201 TL9-specific CD8+ T cells after 6-day stimulation with peptide (human PD-L1 (human)): 12.4%
